Assay [1] deals with C41S SqrR (R. capsulatus). Kind of assay: SEC + cross-linking.
The target of assay [2] is C107S SqrR (R. capsulatus). In words: SEC + cross-linking.

Where “and” joins values, the source holds several entries; their conditions need not be identical. Identical values can stand only once.

The stoichiometry N is a count of units in the complex or per binding partner. In the case of C41S SqrR (natural protein), in assay [1], the stoichiometry N was determined as 2.

Regarding C107S SqrR (natural protein), the stoichiometry N in assay [2] is 2 and 4.

The record behind these values is publication PMC5595413.
